For test [1], the target named is human α4β1 integrin (human) (UniProt P13612). The experiment in a line: cell-based or functional assay.
The target of test [2] is rat α4 integrin on rat lymphocytes (rat). The experiment in a line: cell-based or functional assay.
Test [3] deals with human lymphocyte binding to rat brain cells. The note with it: cited from earlier work.
A further test has as its target VLA-4 (Homo sapiens, UniProt P13612). Particulars: cited from earlier work.

For AIIB2 (antibody), in test [1], the Relative Binding to EAE Vessels (% of Control), human lymphocytes was 7 % of Control and the Relative Binding to EAE Vessels (% of control), U937 cells is 8 % of control.
Turning to HP1/7 (antibody), the Relative Binding to EAE Vessels (% of control), U937 cells in test [1] was 338 % of control.
Regarding HP2/1 (antibody), in test [1], the % Input Binding Jurkat, TNFα-stimulated rat brain EC clone is 6 % input; the % Input Binding Ramos, TNFα-stimulated rat brain EC clone came to 2 % input; the % Input Binding U937 to VCAM-1 transfected L cells amounted to 3 % input; the % inhibition of Jurkat binding to FN-coated plate came out at 47 % inhibition. Besides, in test [1], the % input bound, Jurkat cells on FN-coated plate (% input bound) came out at 42; the % input cells bound, U937 on TNFα-stimulated primary rat brain EC (% input cells bound) was found to be 13; the Binding of U937 cells to inflamed vessels in sections of EAE brain stood at 3; the Relative Binding to EAE Vessels (% of Control), human lymphocytes is 1 % of Control. In test [1], the Relative Binding to EAE Vessels (% of control), U937 cells is 3 % of control and the Relative Binding to EAE Vessels (% of control), U937 cells, tested at 25° C. is 5 % of control. Also, the Relative Binding to EAE Vessels (% of Control), rat lymphocytes in test [2] was 18 % of Control.
As to P4G9 (antibody), the Relative Binding to EAE Vessels (% of control), U937 cells in test [1] is 151 % of control.

B1: mu MAb 21.6: mouse monoclonal antibody specific for the alpha-4 subunit of VLA-4; donor immunoglobulin for humanization (antibody, V domains shown)
VH: EVQLQQSGAELVKPGASVKLSCTASGFNIKDTYIHCVKQRPEQGLEWIGRIDPANGYTKYDPKFQGKATITADTSSNTAYLQLSSLTSEDTAVYFCAREGYYGNYGVYAMDYWGQGTSVTVSSAK
VL: DIQMTQSPSSLSASLGGKVTITCKTSQDINKYMAWYQHKPGKRPRLLIHYTSALQPGIPSRFSGSGSGRDYSFNISNLEPEDIATYYCLQYDNLWTFGGGTKLEIK
Take B1: the “human lymphocyte binding to tissue cultures of rat brain cells stimulated with tumor necrosis factor” value in test [3] is “inhibit”. Also, the “binding affinity for VLA-4” value with VLA-4 is reported as “about 10^9 M^−1”.

The values above are taken from US7576101B2, “Composition for and treatment of demyelinating diseases and paralysis by administration of remyelinating agents” (Elan Pharmaceuticals, Inc., priority 2003, dated 2009).
